Experimental data taken from paper PMC10786891, “Massively parallel profiling of RNA-targeting CRISPR-Cas13d”.

T1: EsCas13d, nuclease-dead (Eubacterium siraeum, UniProt B0MS50, R295A;H300A;R849A;H854A)
T1 sequence: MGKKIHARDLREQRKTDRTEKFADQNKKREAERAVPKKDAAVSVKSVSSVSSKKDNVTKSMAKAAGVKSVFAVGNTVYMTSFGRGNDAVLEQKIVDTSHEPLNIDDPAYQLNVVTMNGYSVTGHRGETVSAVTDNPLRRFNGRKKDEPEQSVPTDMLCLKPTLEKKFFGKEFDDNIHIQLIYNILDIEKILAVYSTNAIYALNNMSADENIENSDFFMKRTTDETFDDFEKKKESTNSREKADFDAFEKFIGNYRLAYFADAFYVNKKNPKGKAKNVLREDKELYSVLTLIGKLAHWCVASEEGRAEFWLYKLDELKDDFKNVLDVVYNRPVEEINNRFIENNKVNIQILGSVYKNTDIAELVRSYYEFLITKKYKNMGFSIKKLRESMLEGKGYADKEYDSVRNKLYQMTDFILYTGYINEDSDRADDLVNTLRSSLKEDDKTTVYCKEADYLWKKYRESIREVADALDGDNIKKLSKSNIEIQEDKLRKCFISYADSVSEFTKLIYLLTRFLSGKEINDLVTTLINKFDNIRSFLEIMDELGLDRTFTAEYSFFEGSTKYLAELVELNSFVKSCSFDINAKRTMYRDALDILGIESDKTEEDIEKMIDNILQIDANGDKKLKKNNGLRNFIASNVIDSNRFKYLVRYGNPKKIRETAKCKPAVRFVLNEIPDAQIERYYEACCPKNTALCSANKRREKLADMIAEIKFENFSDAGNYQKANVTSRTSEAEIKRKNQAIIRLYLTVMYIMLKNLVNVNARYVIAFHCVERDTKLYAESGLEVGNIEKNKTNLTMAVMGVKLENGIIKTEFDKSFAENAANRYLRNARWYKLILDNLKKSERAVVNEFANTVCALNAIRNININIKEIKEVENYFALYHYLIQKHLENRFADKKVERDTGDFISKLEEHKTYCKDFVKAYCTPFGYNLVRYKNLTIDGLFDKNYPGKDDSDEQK

B1: target 1 C6G,C7G (mixed)
RNA 1: CACCCGUGCAAAAAUGCAGGGGUCUAAAACUGAGCGGAUAACCUCUCUAUGG
RNA 2: GGGAAUGGAUCCACAUCUACGAAUUCGUACCAUAGAGAGGUUAUGGGCUCACCGAGAUCGGAAGAGCACACGU
B2: target 1 insA 3' of 13,insC 3' of 13 (mixed)
RNA 1: CACCCGUGCAAAAAUGCAGGGGUCUAAAACUGAGCGGAUAACCUCUCUAUGG
RNA 2: GGGAAUGGAUCCACAUCUACGAAUUCGUACCAUAGAGAGACGUUAUCCGCUCACCGAGAUCGGAAGAGCACACGU
B3: target 1 C2G,G12A (mixed)
RNA 1: CACCCGUGCAAAAAUGCAGGGGUCUAAAACUGAGCGGAUAACCUCUCUAUGG
RNA 2: GGGAAUGGAUCCACAUCUACGAAUUCGUACCAUAGAGAGAUUAUCCGCUGACCGAGAUCGGAAGAGCACACGU
B4: target 1 C2G,C21U (mixed)
RNA 1: CACCCGUGCAAAAAUGCAGGGGUCUAAAACUGAGCGGAUAACCUCUCUAUGG
RNA 2: GGGAAUGGAUCCACAUCUACGAAUUCGUACUAUAGAGAGGUUAUCCGCUGACCGAGAUCGGAAGAGCACACGU
B5: target 1 insU 3' of 6,insG 3' of 2 (mixed)
RNA 1: CACCCGUGCAAAAAUGCAGGGGUCUAAAACUGAGCGGAUAACCUCUCUAUGG
RNA 2: GGGAAUGGAUCCACAUCUACGAAUUCGUACCAUAGAGAGGUUAUCCUGCUCGACCGAGAUCGGAAGAGCACACGU
B6: target 1 insC 3' of 22,insG 3' of 22 (mixed)
RNA 1: CACCCGUGCAAAAAUGCAGGGGUCUAAAACUGAGCGGAUAACCUCUCUAUGG
RNA 2: GGGAAUGGAUCCACAUCUACGAAUUCGUACCGCAUAGAGAGGUUAUCCGCUCACCGAGAUCGGAAGAGCACACGU
B7: target 1 U3A,A14C (mixed)
RNA 1: CACCCGUGCAAAAAUGCAGGGGUCUAAAACUGAGCGGAUAACCUCUCUAUGG
RNA 2: GGGAAUGGAUCCACAUCUACGAAUUCGUACCAUAGAGCGGUUAUCCGCACACCGAGAUCGGAAGAGCACACGU
B8: target 1 insU 3' of 4,insG 3' of 1 (mixed)
RNA 1: CACCCGUGCAAAAAUGCAGGGGUCUAAAACUGAGCGGAUAACCUCUCUAUGG
RNA 2: GGGAAUGGAUCCACAUCUACGAAUUCGUACCAUAGAGAGGUUAUCCGCUUCAGCCGAGAUCGGAAGAGCACACGU
B9: target 1 insA 3' of 12,insG 3' of 1 (mixed)
RNA 1: CACCCGUGCAAAAAUGCAGGGGUCUAAAACUGAGCGGAUAACCUCUCUAUGG
RNA 2: GGGAAUGGAUCCACAUCUACGAAUUCGUACCAUAGAGAGGAUUAUCCGCUCAGCCGAGAUCGGAAGAGCACACGU
B10: target 1 C4U,U10C (mixed)
RNA 1: CACCCGUGCAAAAAUGCAGGGGUCUAAAACUGAGCGGAUAACCUCUCUAUGG
RNA 2: GGGAAUGGAUCCACAUCUACGAAUUCGUACCAUAGAGAGGUCAUCCGUUCACCGAGAUCGGAAGAGCACACGU
B11: target 1 insA 3' of 10,insU 3' of 7 (mixed)
RNA 1: CACCCGUGCAAAAAUGCAGGGGUCUAAAACUGAGCGGAUAACCUCUCUAUGG
RNA 2: GGGAAUGGAUCCACAUCUACGAAUUCGUACCAUAGAGAGGUUAAUCUCGCUCACCGAGAUCGGAAGAGCACACGU
B12: target 1 U8G,G12C (mixed)
RNA 1: CACCCGUGCAAAAAUGCAGGGGUCUAAAACUGAGCGGAUAACCUCUCUAUGG
RNA 2: GGGAAUGGAUCCACAUCUACGAAUUCGUACCAUAGAGAGCUUAGCCGCUCACCGAGAUCGGAAGAGCACACGU
B13: target 1 G12A,A18C (mixed)
RNA 1: CACCCGUGCAAAAAUGCAGGGGUCUAAAACUGAGCGGAUAACCUCUCUAUGG
RNA 2: GGGAAUGGAUCCACAUCUACGAAUUCGUACCAUCGAGAGAUUAUCCGCUCACCGAGAUCGGAAGAGCACACGU
B14: target 1 insC 3' of 5,insU 3' of 2 (mixed)
RNA 1: CACCCGUGCAAAAAUGCAGGGGUCUAAAACUGAGCGGAUAACCUCUCUAUGG
RNA 2: GGGAAUGGAUCCACAUCUACGAAUUCGUACCAUAGAGAGGUUAUCCGCCUCUACCGAGAUCGGAAGAGCACACGU
B15: target 1 insU 3' of 14,insA 3' of 6 (mixed)
RNA 1: CACCCGUGCAAAAAUGCAGGGGUCUAAAACUGAGCGGAUAACCUCUCUAUGG
RNA 2: GGGAAUGGAUCCACAUCUACGAAUUCGUACCAUAGAGAUGGUUAUCCAGCUCACCGAGAUCGGAAGAGCACACGU
B16: target 1 insU 3' of 15,insU 3' of 4 (mixed)
RNA 1: CACCCGUGCAAAAAUGCAGGGGUCUAAAACUGAGCGGAUAACCUCUCUAUGG
RNA 2: GGGAAUGGAUCCACAUCUACGAAUUCGUACCAUAGAGUAGGUUAUCCGCUUCACCGAGAUCGGAAGAGCACACGU
B17: target 1 U11C,U19C (mixed)
RNA 1: CACCCGUGCAAAAAUGCAGGGGUCUAAAACUGAGCGGAUAACCUCUCUAUGG
RNA 2: GGGAAUGGAUCCACAUCUACGAAUUCGUACCACAGAGAGGCUAUCCGCUCACCGAGAUCGGAAGAGCACACGU
B18: target 1 insA 3' of 12,insC 3' of 1 (mixed)
RNA 1: CACCCGUGCAAAAAUGCAGGGGUCUAAAACUGAGCGGAUAACCUCUCUAUGG
RNA 2: GGGAAUGGAUCCACAUCUACGAAUUCGUACCAUAGAGAGGAUUAUCCGCUCACCCGAGAUCGGAAGAGCACACGU
B19: target 1 insA 3' of 11,insA 3' of 6 (mixed)
RNA 1: CACCCGUGCAAAAAUGCAGGGGUCUAAAACUGAGCGGAUAACCUCUCUAUGG
RNA 2: GGGAAUGGAUCCACAUCUACGAAUUCGUACCAUAGAGAGGUAUAUCCAGCUCACCGAGAUCGGAAGAGCACACGU
B20: target 1 A9C,C21U (mixed)
RNA 1: CACCCGUGCAAAAAUGCAGGGGUCUAAAACUGAGCGGAUAACCUCUCUAUGG
RNA 2: GGGAAUGGAUCCACAUCUACGAAUUCGUACUAUAGAGAGGUUCUCCGCUCACCGAGAUCGGAAGAGCACACGU
B21: target 1 insC 3' of 15,insC 3' of 13 (mixed)
RNA 1: CACCCGUGCAAAAAUGCAGGGGUCUAAAACUGAGCGGAUAACCUCUCUAUGG
RNA 2: GGGAAUGGAUCCACAUCUACGAAUUCGUACCAUAGAGCAGCGUUAUCCGCUCACCGAGAUCGGAAGAGCACACGU
B22: target 1 U11C,C21A (mixed)
RNA 1: CACCCGUGCAAAAAUGCAGGGGUCUAAAACUGAGCGGAUAACCUCUCUAUGG
RNA 2: GGGAAUGGAUCCACAUCUACGAAUUCGUACAAUAGAGAGGCUAUCCGCUCACCGAGAUCGGAAGAGCACACGU
B23: target 1 insA 3' of 3,insA 3' of 2 (mixed)
RNA 1: CACCCGUGCAAAAAUGCAGGGGUCUAAAACUGAGCGGAUAACCUCUCUAUGG
RNA 2: GGGAAUGGAUCCACAUCUACGAAUUCGUACCAUAGAGAGGUUAUCCGCUACAACCGAGAUCGGAAGAGCACACGU
B24: target 1 insA 3' of 19,insG 3' of 4 (mixed)
RNA 1: CACCCGUGCAAAAAUGCAGGGGUCUAAAACUGAGCGGAUAACCUCUCUAUGG
RNA 2: GGGAAUGGAUCCACAUCUACGAAUUCGUACCAUAAGAGAGGUUAUCCGCGUCACCGAGAUCGGAAGAGCACACGU
B25: target 1 insU 3' of 17,insU 3' of 6 (mixed)
RNA 1: CACCCGUGCAAAAAUGCAGGGGUCUAAAACUGAGCGGAUAACCUCUCUAUGG
RNA 2: GGGAAUGGAUCCACAUCUACGAAUUCGUACCAUAGUAGAGGUUAUCCUGCUCACCGAGAUCGGAAGAGCACACGU
B26: target 1 insG 3' of 22,insA 3' of 22 (mixed)
RNA 1: CACCCGUGCAAAAAUGCAGGGGUCUAAAACUGAGCGGAUAACCUCUCUAUGG
RNA 2: GGGAAUGGAUCCACAUCUACGAAUUCGUACGACAUAGAGAGGUUAUCCGCUCACCGAGAUCGGAAGAGCACACGU
B27: target 1 A9U,A18U (mixed)
RNA 1: CACCCGUGCAAAAAUGCAGGGGUCUAAAACUGAGCGGAUAACCUCUCUAUGG
RNA 2: GGGAAUGGAUCCACAUCUACGAAUUCGUACCAUUGAGAGGUUUUCCGCUCACCGAGAUCGGAAGAGCACACGU
B28: target 1 insG 3' of 22,insG 3' of 16 (mixed)
RNA 1: CACCCGUGCAAAAAUGCAGGGGUCUAAAACUGAGCGGAUAACCUCUCUAUGG
RNA 2: GGGAAUGGAUCCACAUCUACGAAUUCGUACGCAUAGAGGAGGUUAUCCGCUCACCGAGAUCGGAAGAGCACACGU

Target: T1, EsCas13d, nuclease-dead
Assay: crRNA (strand 1, pre-loaded); Mg2+; 40 mM Tris-HCl pH 7.5, 150 mM NaCl, 6 mM MgCl2, 1 mM DTT, 0.1% Tween-20, 0.2 mg/ml BSA; 25 C; 10 min per concentration, then washed
Conditions: tags: His6-TwinStrep-SUMO cleaved; N-terminal SNAP kept (SNAP-Surface 488); label: 3' end held by stalled T7 RNA polymerase

Binder | Kd [nM]
B1 | 13.3 ± 0.7
B2 | 23 ± 5
B3 | 3.51 ± 0.18
B4 | 11.7 ± 1.6
B5 | 15.3 ± 1
B6 | 12.6 ± 0.6
B7 | 20.8 ± 1
B8 | 6.8 ± 0.4
B9 | 28.9 ± 3.1
B10 | 52 ± 23
B11 | 39.3 ± 2.6
B12 | 16.4 ± 0.8
B13 | 51 ± 7
B14 | 15.2 ± 0.6
B15 | 80 ± 32
B16 | 9.6 ± 0.6
B17 | ~80
B18 | 27.4 ± 2.6
B19 | 13.2 ± 1
B20 | 9.9 ± 0.4
B21 | 34 ± 4
B22 | 51 ± 6
B23 | 7.1 ± 0.4
B24 | 15.1 ± 0.7
B25 | 29.7 ± 2.9
B26 | 30.8 ± 2.9
B27 | 44.9 ± 3.5
B28 | 57 ± 8
